Test results published in patent US11306331B2, “Processes for the production of hydroxycinnamic acids using polypeptides having tyrosine ammonia lyase activity” (CysBio ApS, priority 2014, dated 2022).

Assays:
[1] = molecular target: T1, Flavobacterium johnsoniae FjXAL tyrosine ammonia lyase (Protein GI 146298870), SEQ ID NO: 1, His-tagged (N-terminal tag SEQ ID NO: 11) (Flavobacterium johnsoniae, UniProt A5FKY3); test: In vitro kinetics of purified His-tagged FjXAL (tyrosine/phenylalanine ammonia lyase activity, absorbance at 315/295 nm); assay type: biochemical
T1 sequence (A5FKY3 1-506): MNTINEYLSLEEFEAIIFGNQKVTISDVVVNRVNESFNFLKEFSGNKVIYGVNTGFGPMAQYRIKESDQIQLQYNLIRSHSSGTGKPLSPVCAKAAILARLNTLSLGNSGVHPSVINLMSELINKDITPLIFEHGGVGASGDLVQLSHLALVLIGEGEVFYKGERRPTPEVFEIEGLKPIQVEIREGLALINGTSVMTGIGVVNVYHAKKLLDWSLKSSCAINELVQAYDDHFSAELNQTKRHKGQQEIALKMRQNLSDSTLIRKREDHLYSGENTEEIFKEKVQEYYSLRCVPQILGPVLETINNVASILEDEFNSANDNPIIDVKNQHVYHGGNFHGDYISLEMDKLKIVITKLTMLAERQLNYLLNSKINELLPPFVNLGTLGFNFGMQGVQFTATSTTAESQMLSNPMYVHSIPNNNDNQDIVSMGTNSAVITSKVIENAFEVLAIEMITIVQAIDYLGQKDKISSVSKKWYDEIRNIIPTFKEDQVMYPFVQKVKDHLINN
Description: The tyrosine ammonia lyase activity may for instance be determined in accordance to the following method: Enzymatic assays are performed in 200 μL volumes in wells in a UV transparent 96-well plate, by following the increase in absorbance at 315 nm (pHCA) using spectrophotometry or HPLC with UV detection. The reaction mixtures contain 2 μg of purified protein and are initiated by adding 1 mM tyrosine or 6 mM after equilibration to 30° C. The enzymatic activity is calculated as U/g, where U is defined as μmol substrate converted per minute. Negative controls contain no purified protein. Kinetic constants Km and vmax are determined from assays containing 1.56 μM to 200 μM tyrosine. See also Kyndt et al. (2002).
Four of the enzymes were further purified by His-tag purification as follows. A DNA linker (5′ phosphorylated oligonucleotides CBJP559 and CBJP560, Table 5) was inserted in place of the sequence between the NdeI and BgIII site in plasmid pCDFDuet-1. This would result in the addition of the amino acids MAHHHHHHENLYFQ (SEQ ID NO: 11) to the N-terminal end of the polypeptides. […]
Enzymatic assays were performed in 200 μL volumes in wells in a UV transparent 96-well plate, by following the increase in absorbance at 315 nm (pHCA) or 295 nm (CA). […] The enzymatic activity was calculated as U/g, where U is defined as μmol substrate converted per minute.

[2] = test system: L. lactis NZ9000ΔldhΔldhB; test: Specific pHCA and CA productivity of L. lactis strains expressing TAL/PAL enzymes in CDM; assay type: cell-based, Lactococcus lactis
From the text: The synthetic RsXALI (protein GI 129592) and RmXALI (protein GI 126464011) genes, codon optimized for Lactococcus lactis (GeneArt), were cloned into the nisin inducible expression vector pNZ8048 (Kuipers et al., 1998) as follows: RsXALI (SEQ ID NO: 56) and RmXALI (SEQ ID NO: 57) genes and the vector were PCR amplified using the primers listed in Table 7, and were assembled in a single-tube isothermal reaction using the Gibson Assembly Master Mix (New England Biolabs). Reaction products were ethanol-precipitated and suspended in double distilled water before transformation into L. lactis by electroporation as described by Holo and Nes (1995). The synthetic genes encoding SeSam8, R_XAL, HaXAL1 and FjXAL described in a previous example above were amplified by PCR using the primer pairs listed in Table 1, digested with specific restriction enzymes, and cloned in-between the NcoI and XbaI restriction sites of pNZ8048. The plasmids were obtained and maintained in L. lactis NZ9000 (Kuipers et al., 1998) and the gene sequences of the different constructs were verified by sequencing.
To assess pHCA production, TAL-expression vectors were transformed into a strain derived from NZ9000, but with deletion of the genes Idh and dhB (NZ9000ΔldhΔldhB). A control strain was also constructed by transformation of NZ9000ΔldhΔldhB with empty expression vector pNZ8048.
For molecular biology procedures, L. lactis strains were cultivated as batch cultures (flasks) without aeration in M17 medium (Difco™, USA) supplemented with 0.5% glucose (w/v) at 30° C. To assess pHCA production, strains were grown as static cultures in chemically defined medium (CDM; Poolman and Konings, 1988) containing 1% glucose (wt/vol) without pH control (initial pH 6.5 or 7.0) and supplemented with 1.7 or 3.7 mM L-tyrosine. Plasmid selection was achieved by addition of 5 μg mL^−1 chloramphenicol to the growth medium. Growth was monitored by measuring OD600. For heterologous expression of cloned tyrosine ammonia lyases, L. lactis strains were grown in CDM and nisin (1.5 μg L^−1) was added at an OD600 of 0.3-0.4. Samples (1 mL) of cultures were collected at different points during growth; centrifuged (16,100×g, 10 min, 4° C.) and the supernatants stored at −20° C. until analysis by HPLC as described in a previous example above. […] The first six columns are results from media containing 1.7 mM tyrosine. The seventh and ninth columns represent samples from strains grown in media containing 3.7 mM tyrosine, and the eighth and ninth columns are data from media with 68.5 mM 3-(N-morpholino)propanesulfonic acid (MOPS) and initial pH adjusted to 7.0 rather than 6.5.

## N[C@@H](Cc1ccc(O)cc1)C(=O)O [Tyr, tyrosine]
[1]; 30° C, 1.56 μM to 200 μM tyrosine or 193 μM to 25 mM phenylalanine
  Kcat: 0.0212 s⁻¹
[1]; ratio of Kcat/Km for Tyr over Phe
  TAL/PAL: 3000

B1: Flavobacterium johnsoniae FjXAL tyrosine ammonia lyase (Protein GI 146298870), SEQ ID NO: 1, His-tagged (N-terminal tag SEQ ID NO: 11) (Flavobacterium … (protein)
chain: MNTINEYLSLEEFEAIIFGNQKVTISDVVVNRVNESFNFLKEFSGNKVIYGVNTGFGPMAQYRIKESDQIQLQYNLIRSHSSGTGKPLSPVCAKAAILARLNTLSLGNSGVHPSVINLMSELINKDITPLIFEHGGVGASGDLVQLSHLALVLIGEGEVFYKGERRPTPEVFEIEGLKPIQVEIREGLALINGTSVMTGIGVVNVYHAKKLLDWSLKSSCAINELVQAYDDHFSAELNQTKRHKGQQEIALKMRQNLSDSTLIRKREDHLYSGENTEEIFKEKVQEYYSLRCVPQILGPVLETINNVASILEDEFNSANDNPIIDVKNQHVYHGGNFHGDYISLEMDKLKIVITKLTMLAERQLNYLLNSKINELLPPFVNLGTLGFNFGMQGVQFTATSTTAESQMLSNPMYVHSIPNNNDNQDIVSMGTNSAVITSKVIENAFEVLAIEMITIVQAIDYLGQKDKISSVSKKWYDEIRNIIPTFKEDQVMYPFVQKVKDHLINN
[2]; CDM, 1.7 mM tyrosine
  increase in specific production of pHCA over RmXALI, the second-best enzyme: five-fold increase
[2]; CDM, 1.7 mM tyrosine, initial pH 6.5
  Specific production of pHCA: 15 μM OD600^−1
[2]; tyrosine increased from 1.7 mM to 3.7 mM and/or pH increased from 6.5 to 7.0
  specific productivity of pHCA: 24 μMD600^−1
